Reference: patent publication US20150126710A1 (APOGENIX, published 2015)

Tests used:
TRAIL-Receptor 1-Fc [1] = biological target: T1, TRAIL-Receptor 1-Fc (UniProt O00220 109-239, limits assumed); test: Streptactin-ELISA, LIGHT-ASPD immobilized via Strep-tag II
T1 construct: Bought from R&D Systems; also called TRAILR1; not shown: Fc part of the bought fusion protein
Procedure: (§1) To determine the binding of receptors to constructed ligands, streptactin-coated 96-well microplates were used. Therefore, supernatants from transiently transfected HEK293 cells, mouse sera or purified proteins were immobilized on streptactin-plates (IBA GmbH) for 1-3 hours in PBS. Samples were diluted in ELISA binding/blocking buffer (PBS, 0.1% Tween-20, 20% SuperBlock T20-PBS (Pierce)). Plates were washed with PBS+0.1% Tween-20 and incubated with mouse-anti-TRAIL antibody (Pharmingen, clone RIK-2), TRAIL-Receptor 1-Fc (R&D Systems), TRAIL-Receptor 2-Fc (R&D Systems), TACI-Fc (R&D Systems) or HVEM-Fc (R&D Systems) for one hour at room temperature. Plates were again washed and Fc-proteins were detected with anti-human- or anti-mouse-Fc-specific peroxidase-conjugated antibodies (Sigma). Colour reaction was done by addition of 100 μl per well of TMB substrate (Kem-En-Tec Diagnostics) and the absorbance at 450 nm and 630 nm was determined with an ELISA reader after addition of 25 μl of 25% H₂SO₄ as stop-solution. Values were calculated as 450 nm-630 nm with MS Excel.
Varying concentrations (0-10 microgram/ml) of affinity and SEC purified, trimeric LIGHT-ASPD were used for immobilized via the Strep-tag II on Streptactin-coated microplates. LIGHT-ASPD was then detected in a ELISA set-up using 100 ng/ml of Fc-fusion proteins of the receptors HVEM and TRAIL-Receptor 1, respectively. […]

TRAIL-Receptor 1-Fc [2] = biological target: T1, TRAIL-Receptor 1-Fc; test: Streptactin-ELISA, supernatant immobilized, constant concentration of TRAIL-Receptor 1-Fc (FIG. 14A)
Procedure: as §1
The selectivity of TRAIL-Receptor 1 or TRAIL-Receptor 2 towards fusion proteins of SPD/ccSPD and TRAIL, TRAILR1 mut and TRAILR2mut was shown by Streptactin-ELISA. Therefore, TRAIL-SPD-fusion proteins in supernatants from transiently transfected HEK293 cells were immobilized on Streptactin coated microplates. Cell supernatant from untransfected cells served as negative control. Specifically bound proteins were detected with constant (A, B) or varying (C, D) concentrations of either TRAIL-Receptor 1-Fc or TRAIL-Receptor 2-Fc. As shown in (A), the ligand TRAILR1 mut fused to SPD variants is deteced by TRAIL-Receptor 1, whereas the ligand TRAILR2mut is not. As shown in (B), the ligand TRAILR2mut is preferentially detected by TRAIL-Receptor 2, whereas TRAILR1 mut- and TRAIL wild-type constructs are equally well detected. As shown in C, TRAIL-Receptor 1-Fc bound to TRAIL-R1mut-ASPD and TRAIL-ASPD equally well over the whole receptor titration range, whereas TRAIL-R2mut-ASPD is not detected. As shown in D, TRAIL-Receptor 2-Fc bound to TRAIL-R2mut-ASPD and TRAIL-ASPD equally well over the receptor titration range analyzed, whereas the signal for TRAIL-R1mut-ASPD decreased rapidely with decreasing concentrations of receptor.

T1 sequence (O00220 109-239 limits assumed): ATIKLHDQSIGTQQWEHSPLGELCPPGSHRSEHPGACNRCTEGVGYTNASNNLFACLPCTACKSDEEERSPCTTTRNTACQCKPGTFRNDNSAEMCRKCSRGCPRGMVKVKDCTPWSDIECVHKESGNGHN

Binder | binding result (TRAIL-Receptor 1-Fc [1]) | binding result (TRAIL-Receptor 1-Fc [2])
LIGHT-ASPD (ligand, Human LIGHT-RBD (Glu91-Val240), A-linker, neck + CRD of human SP-D, linker element and Strep-tag II; Signal peptide 1-20 left out; Trimer by SEC, glycosylated; also called Sp-LIGHT-ASPD) EVNPAAHLTGANSSLTGSGGPLLWETQLGLAFLRGLSYHDGALVVTKAGYYYIYSKVQLGGVGCPLGLASTITHGLYKRTPRYPEELELLVSQQSPCGRATSSSRVWWDSSFLGGVVHLEAGEEVVVRVLDERLVRLRDGTRSYFGAFMVGSSGSSGSSGSGLPDVASLRQQVEALQGQVQHLQAAFSQYKKVELFPNGQSVGEKIFKTAGFVKPFTEAQLLCTQAGGQLASPRSAAENAALQQLVVAKNEAAFLSMTDSKTEGKFTYPTGESLVYSNWAPGEPNDDGGSEDCVEIFTNGKWNDRACGEKRLVVCEFGGSPSSSSSSAWSHPQFEK | no binding | –
TRAILR2mut-A-CCSPD (ligand, Used as HEK293 supernatant) QRVAAHITGTRGRSNTLSSPNSKNEKALGRKINSWESSRSGHSFLSNLHLRNGELVIHEKGFYYIYSQTQFKFREEIKENTKNDKQMVQYIYKYTSYPDPILLMKSARNSCWSKDAEYGLYSIYQGGIFELKENDRIFVSVTNERLLQMDHEASFFGAFLVGSSGSSGSSGSGLPDVASLRQQVEALQGQVQHLQAAFSQYKKVELFPNGPSSSSSSAWSHPQFEK | – | no binding

More lines, now with the values ahead:

binding result (TRAIL-Receptor 1-Fc [1]) | binding result (TRAIL-Receptor 1-Fc [2]) | Binder
– | no binding | TRAILR2mut-ASPD (ligand, TRAIL-Receptor 2 selective mutein of the human TRAIL-RBD, A-linker, neck + CRD of human SP-D, linker element and Strep-tag II; Signal peptide 1-20 left out; Homotrimer by SEC; also called Sp-TRAILR2mut-ASPD) QRVAAHITGTRGRSNTLSSPNSKNEKALGRKINSWESSRSGHSFLSNLHLRNGELVIHEKGFYYIYSQTQFKFREEIKENTKNDKQMVQYIYKYTSYPDPILLMKSARNSCWSKDAEYGLYSIYQGGIFELKENDRIFVSVTNERLLQMDHEASFFGAFLVGSSGSSGSSGSGLPDVASLRQQVEALQGQVQHLQAAFSQYKKVELFPNGQSVGEKIFKTAGFVKPFTEAQLLCTQAGGQLASPRSAAENAALQQLVVAKNEAAFLSMTDSKTEGKFTYPTGESLVYSNWAPGEPNDDGGSEDCVEIFTNGKWNDRACGEKRLVVCEFGGSPSSSSSSAWSHPQFEK
– | no binding | TRAILR2mut-D-CCSPD (ligand, Used as HEK293 supernatant) QRVAAHITGTRGRSNTLSSPNSKNEKALGRKINSWESSRSGHSFLSNLHLRNGELVIHEKGFYYIYSQTQFKFREEIKENTKNDKQMVQYIYKYTSYPDPILLMKSARNSCWSKDAEYGLYSIYQGGIFELKENDRIFVSVTNERLLQMDHEASFFGAFLVGSGLPDVASLRQQVEALQGQVQHLQAAFSQYKKVELFPNGPSSSSSSAWSHPQFEK
– | no binding | TRAILR2mut-D-SPD (ligand, Used as HEK293 supernatant) QRVAAHITGTRGRSNTLSSPNSKNEKALGRKINSWESSRSGHSFLSNLHLRNGELVIHEKGFYYIYSQTQFKFREEIKENTKNDKQMVQYIYKYTSYPDPILLMKSARNSCWSKDAEYGLYSIYQGGIFELKENDRIFVSVTNERLLQMDHEASFFGAFLVGSGLPDVASLRQQVEALQGQVQHLQAAFSQYKKVELFPNGQSVGEKIFKTAGFVKPFTEAQLLCTQAGGQLASPRSAAENAALQQLVVAKNEAAFLSMTDSKTEGKFTYPTGESLVYSNWAPGEPNDDGGSEDCVEIFTNGKWNDRACGEKRLVVCEFGGSPSSSSSSAWSHPQFEK
